Data from the supplement of paper PMC7877785.
± gives the uncertainty stated by the source.

Assay: self-splicing fitness, log relative to wild type (ln ratio); higher = more splicing; Tetrahymena group I intron in knt gene, E. coli kanamycin selection, DiMSum; sequences stand for … in CUCUCU…GGAGGGAAAAGUUAUCAGGCAUGCACCUGGUAGCUAGUCUUUAAACCAAUAGAUUGCAUCGGUUUAAAAGGCAAGACCGUCAAAUUGCGGGAAAGGGGUCAACAGCCGUUCAGUACCAAGUCUCAGGGGAAACUUUGAGAUGGCCUUGCAAAGGGUAUGGUAAUAAGCUGACGGACAUGGUCCUAACCACGCAGCCAAGUCCUAAGUCAACAGAUCUUCUGUUGAUAUGGAUGCAGUUCACAGACUAAAUGUCGGUCGGGGAAGAUGUAUUCUUCUCAUAAGAUAUAGUCGGACCUCUCCUUAAUGGGAGCUAGCGGAUGAAGUGAUGCAACACUGGAGCCGCUGGGAACUAAUUUGUAUGCGAAAGUAUAUUGAUUAGUUUUGGAGUACUCGUGGUCG
In short: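 DiMSum derived fitness as the error-weighted combination of fold changes across replicates, kanamycin versus no kanamycin, normalised to wild type. E. coli BL21(DE3) held the library, which randomised all eight P1ex-region intron nucleotides within the knt kanamycin-resistance gene on pET-22b(+). Six replicate transformations grew overnight at 37°C or 30°C on LB agar with or without 25 μg/mL kanamycin, also containing 100 μg/mL carbenicillin, 50 μM IPTG and 0.2% rhamnose, and pooled colonies were amplicon-sequenced on an Illumina HiSeq 2500.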

Sequence	self-splicing fitness (ln) (30 °C)	self-splicing fitness (ln) (37 °C)
GGUUAGCAAUAUUACGAUGG	-1.88 ± 0.23	-1.16 ± 0.24
GGGCAGCAAUAUUACGCGAU	-2.41 ± 0.39	-1.8 ± 0.28
UAUGAGCAAUAUUACGACCG	-1.61 ± 0.4	-1.53 ± 0.34
UAUGAGCAAUAUUACGGUGU	-3.54 ± 0.23	-2.63 ± 0.2
GAUCAGCAAUAUUACGUGGC	-2.95 ± 0.21	-0.582 ± 0.15
CUAUAGCAAUAUUACGGCCG	0.0895 ± 0.15	-0.314 ± 0.15
CACAAGCAAUAUUACGGGCC	-3.78 ± 0.33	-2.01 ± 0.29
UCAUAGCAAUAUUACGGGGC		-3.14 ± 0.37
GUUCAGCAAUAUUACGGACU	-3.7 ± 0.14	-2.88 ± 0.18
GUUGAGCAAUAUUACGAUGU	-2.43 ± 0.21	-1.03 ± 0.18
GAACAGCAAUAUUACGCAUC	-2.79 ± 0.095	-2.01 ± 0.12
UCAUAGCAAUAUUACGAUCU	-3.02 ± 0.19	-1.88 ± 0.18
CGAUAGCAAUAUUACGUCGC	-3 ± 0.15	-2.79 ± 0.21
AUCAAGCAAUAUUACGGACC	-1.47 ± 0.12	-1.22 ± 0.086
UAUGAGCAAUAUUACGCUGA	-2.75 ± 0.33	-1.13 ± 0.3
ACUUAGCAAUAUUACGGUCA	-1.88 ± 0.15	-0.773 ± 0.15
UUUCAGCAAUAUUACGGACA	-0.569 ± 0.09	-0.204 ± 0.1
GACCAGCAAUAUUACGGCCU	-2.51 ± 0.13	-0.969 ± 0.11
AUUCAGCAAUAUUACGCCCC	0.0239 ± 0.13	0.082 ± 0.23
CUCAAGCAAUAUUACGUCAC	-3.4 ± 0.22	-2.7 ± 0.21
AGAAAGCAAUAUUACGAUUG	-3.82 ± 0.27	-1.93 ± 0.21

Sequence	self-splicing fitness (ln) (30 °C)	self-splicing fitness (ln) (37 °C)
AUUGAGCAAUAUUACGAGCA	-3.01 ± 0.47	-1.93 ± 0.42
AAAAAGCAAUAUUACGAUAG	-3.26 ± 0.17	-1.11 ± 0.15
CAAAAGCAAUAUUACGCGUG	-3.22 ± 0.11	-2.11 ± 0.14
UCUUAGCAAUAUUACGCAAG	-1.34 ± 0.2	-2.48 ± 0.28
CGUCAGCAAUAUUACGUGCC	-0.61 ± 0.16	0.32 ± 0.19
AACCAGCAAUAUUACGCUAU	-2.11 ± 0.094	-0.398 ± 0.093
CUCAAGCAAUAUUACGGACA	-2.5 ± 0.35	-2.1 ± 0.32
CCAAAGCAAUAUUACGUGGA	-3.55 ± 0.15	-2.81 ± 0.21
ACUCAGCAAUAUUACGGACC	-0.551 ± 0.13	0.137 ± 0.14
ACUGAGCAAUAUUACGUAGA	-3.68 ± 0.17	-2.51 ± 0.23
GUUCAGCAAUAUUACGGCUG	-3.59 ± 0.23	-2.38 ± 0.26
UUCCAGCAAUAUUACGGAGC	-4.31 ± 0.31	-2.99 ± 0.47
UGCUAGCAAUAUUACGGCCU	0.151 ± 0.14	0.383 ± 0.16
GUUCAGCAAUAUUACGCCAG	-2.06 ± 0.29	
CUCGAGCAAUAUUACGGUAC	-2.82 ± 0.22	-2.84 ± 0.4
CAUCAGCAAUAUUACGACAU	-2.905 ± 0.017	-1.51 ± 0.033
CGCCAGCAAUAUUACGACAA	-2.46 ± 0.31	-0.75 ± 0.15
GUAGAGCAAUAUUACGGGAU	-2.01 ± 0.098	-1.19 ± 0.12
UUCGAGCAAUAUUACGUGCU	-2.02 ± 0.18	
UGUCAGCAAUAUUACGCACG	-1.06 ± 0.12	-0.829 ± 0.13
GCCUAGCAAUAUUACGCUAG		-2.47 ± 0.3

Sequence	self-splicing fitness (ln) (30 °C)	self-splicing fitness (ln) (37 °C)
AGUAAGCAAUAUUACGAGCG	-0.847 ± 0.072	-0.0455 ± 0.11
ACCUAGCAAUAUUACGAAAA	-2.66 ± 0.18	-1.7 ± 0.13
GACGAGCAAUAUUACGGCGA	-2.12 ± 0.13	-1.65 ± 0.13
GGCAAGCAAUAUUACGGAUC	-0.625 ± 0.096	-0.11 ± 0.099
GACAAGCAAUAUUACGGAUU	-2.16 ± 0.076	-0.656 ± 0.076
AUCGAGCAAUAUUACGAGAC	-1.99 ± 0.32	
UAAUAGCAAUAUUACGUUAU	-2.86 ± 0.21	-1.44 ± 0.19
UCUGAGCAAUAUUACGGAUG	-4.11 ± 0.31	-2.14 ± 0.23
GCAUAGCAAUAUUACGGCGG	-2.63 ± 0.19	-2.26 ± 0.37
CCCGAGCAAUAUUACGUUAG	-3.6 ± 0.17	-2.8 ± 0.22
GACGAGCAAUAUUACGUAUA	-3.23 ± 0.29	-0.524 ± 0.2
CCAAAGCAAUAUUACGGUAC	-3.5 ± 0.24	-3.13 ± 0.29
AUUGAGCAAUAUUACGCCGG	-2.87 ± 0.33	-2.53 ± 0.48
CCACAGCAAUAUUACGACCC	-4.02 ± 0.39	
UUUGAGCAAUAUUACGGAUU	-3.69 ± 0.25	-2.31 ± 0.2
UUUCAGCAAUAUUACGAGAA	-1.92 ± 0.37	-1.49 ± 0.24
UACUAGCAAUAUUACGCGUG	-1.21 ± 0.079	-0.559 ± 0.089
AAUCAGCAAUAUUACGUCAU	0.166 ± 0.064	0.337 ± 0.077
CGUCAGCAAUAUUACGCGCA	-1.1 ± 0.14	-0.181 ± 0.13
CCCUAGCAAUAUUACGGUUG	-3.3 ± 0.14	-2.04 ± 0.11
